# Measured values taken from patent US20260234283A1 (published 2026).
# Positions count from the first letter of the chain named.
# T1: recombinant cyno SIRPα-His (cynomolgus monkey, UniProt A0A2K5VYQ9 31-372)
# T1 chain: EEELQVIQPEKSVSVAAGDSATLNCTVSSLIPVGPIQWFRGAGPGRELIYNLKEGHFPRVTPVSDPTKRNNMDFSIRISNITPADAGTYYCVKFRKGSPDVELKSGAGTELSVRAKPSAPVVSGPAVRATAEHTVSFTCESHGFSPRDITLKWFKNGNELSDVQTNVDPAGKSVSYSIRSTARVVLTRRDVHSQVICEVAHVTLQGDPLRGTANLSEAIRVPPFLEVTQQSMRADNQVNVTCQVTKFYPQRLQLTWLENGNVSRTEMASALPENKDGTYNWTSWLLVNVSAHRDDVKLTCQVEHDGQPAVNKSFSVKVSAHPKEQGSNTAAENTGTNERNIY
# B1: 49.64D3.A6 (antibody, V domains shown)
# VH: EVMLVESGGGLVKPGGSLKLTCAASGFIFSNYAMSWVRQTPEKRLEWVATFSSGGSYTYYQDSVKGRFTVSRDNAKNTLYLQMSSLRSEDTAMYYCARSGWDGWFAYWGQGTLVTVSA
# VL: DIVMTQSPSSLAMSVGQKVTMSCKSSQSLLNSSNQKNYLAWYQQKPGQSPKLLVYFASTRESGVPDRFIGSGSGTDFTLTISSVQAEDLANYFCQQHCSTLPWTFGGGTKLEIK
# B2: 49.56C11.C1 (antibody, V domains shown)
# VH: B1 VH with I28T, Y32H, S52G, Q61L, A97S
# VL: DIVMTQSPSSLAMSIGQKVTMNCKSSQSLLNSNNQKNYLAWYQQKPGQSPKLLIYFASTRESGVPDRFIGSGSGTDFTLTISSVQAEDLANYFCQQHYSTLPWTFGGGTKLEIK
# B3: 53.21A9.B11 (antibody, V domains shown)
# VH: QVQLQESGPGLVKPSETLSLTCTVSGGSVSSGRYYWSWIRQPPGKGLEWIGYIYYSGSTNYNPSLKSRVTISVDTSKNQFSLKLTSVTAADTAVYYCARAYDWNYFFDYWGQGTLVTVSS
# VL: DIVMTQSPLSLPVTPGEPASISCRSSQSLLYSNGYNYLEWYLQKPGQSPQLLIYLGSNRASGVPDRFSGSGSGTDFTLQISRVEAEDVGVYYCMQGLQTPITFGQGTRLEIK
# B4: 56.16A1.H11 (antibody, V domains shown)
# VH: EVQLVESGGGLVQPGRSMKLSCAASGFIFTNYDMAWVRQAPTKGLEWVASISYGGSRIYYRDSVKGRFTISRDDAKSTLYLQMDSLRSEDTATYYCTTDYGYNPSYYWYFDFWGPGTMVTVSS
# VL: DIQMTQTPSSMPASLGERVTISCRASQGISNYLNWYQQKPDGTIKPLIYYTSNLQSGVPSRFSGSGSGTDYSLTISSLEPEDFAMYYCQQYDSSPYTFGAGTKLELKR
# B5: 54.69B10.E7 (antibody, V domains shown)
# VH: EVQLVESGGGLVQPGGSLRLSCAASGFTFSSYDMHWVRQTTGKGLEWVSVIGIAGDTYYAGSVKGRFTISRENAKSSLYLQMNSLRAGDTAVYYCARGGNWDDAFDIWGQGTMVTVSS
# VL: DIQMTQSPSSLSASVGDRVTITCRASQDINNYLAWFQQKPGKAPKSLIYTTSSLQSGVPSKFSGSGSGTDFTLTISSLQPEDFATYYCQQYVSYPYTFGQGTKLEIK
# B6: 54.8A5.A5 (antibody, V domains shown)
# VH: B5 VH with G10D, V12I, T28S, V50A, I53T, A60P, S76N, M113V
# VL: B5 VL with K42R, Y49F, T51A, S53R, T72S, V92T, S93F
# B7: 54.76D9.B6 (antibody, V domains shown)
# VH: B5 VH with T40A, A54S, A60P, S76N, Y79H, F105L
# VL: B5 VL
# B8: 54.58C2.B9.A2 (antibody, V domains shown)
# VH: B5 VH with T40A, A54S, A60P, S76N
# VL: B5 VL
# B9: 49.91C2.A9 (antibody, V domains shown)
# VH: EVKLLESGGGLVQPGGSLKLSCAASGFDFSRYWMSWVRQAPGKGLEWIGEINPDSSTINYTPSLKDKFIISRDNAKNTLYLQMSKVRSEDTALYYCATSFYGSSYWYFDVWGAGTTVTVSS
# VL: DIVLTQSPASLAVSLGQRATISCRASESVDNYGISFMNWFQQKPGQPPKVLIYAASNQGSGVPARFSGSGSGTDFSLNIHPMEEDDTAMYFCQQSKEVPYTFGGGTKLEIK
# Molecular target: recombinant human SIRPα-His V2 (human, UniProt P78324 31-370)
# Test: Biacore
# recombinant human SIRPα-His V2, sequence (P78324 other isoform, or with tags, fused parts or gaps): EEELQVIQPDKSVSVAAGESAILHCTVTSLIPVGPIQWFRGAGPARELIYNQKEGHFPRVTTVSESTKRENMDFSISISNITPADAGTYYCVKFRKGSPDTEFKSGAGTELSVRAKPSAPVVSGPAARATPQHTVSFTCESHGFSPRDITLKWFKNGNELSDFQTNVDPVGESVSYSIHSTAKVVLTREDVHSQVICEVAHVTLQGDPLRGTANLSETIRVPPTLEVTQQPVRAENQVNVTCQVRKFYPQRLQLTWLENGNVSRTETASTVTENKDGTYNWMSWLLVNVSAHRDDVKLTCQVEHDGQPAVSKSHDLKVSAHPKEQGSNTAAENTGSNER
row,Kd [nM],Binder
1,3.17,B1
2,3.41,B2
3,67.6,B3
4,0.981,B4
5,< 0.1,B5
6,1.13,B6
7,< 0.1,B7
8,< 0.1,B8
9,40.2,B9

# Molecular target: recombinant human SIRPα-His V8 (human, UniProt P78324 31-370)
# Test: Biacore
# recombinant human SIRPα-His V8, sequence (P78324 other isoform, or with tags, fused parts or gaps): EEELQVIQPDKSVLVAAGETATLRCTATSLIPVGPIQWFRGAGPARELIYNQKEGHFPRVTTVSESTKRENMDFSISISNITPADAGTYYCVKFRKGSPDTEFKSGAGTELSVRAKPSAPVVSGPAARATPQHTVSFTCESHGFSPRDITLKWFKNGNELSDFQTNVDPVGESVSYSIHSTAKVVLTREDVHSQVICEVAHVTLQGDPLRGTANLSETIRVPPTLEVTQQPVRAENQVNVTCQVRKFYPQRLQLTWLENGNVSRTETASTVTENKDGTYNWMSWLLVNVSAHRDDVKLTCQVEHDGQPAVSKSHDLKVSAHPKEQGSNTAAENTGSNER
row,Kd [nM],Binder
1,2.66,B1
2,2.68,B2
3,62.3,B3
4,0.337,B4
5,< 0.1,B5
6,1.05,B6
7,< 0.1,B7
8,< 0.1,B8
9,35,B9

# Molecular target: T1, recombinant cyno SIRPα-His
# Test: Biacore
row,Kd [nM],Binder
1,22.6,B1
2,22.3,B2
3,116,B3
4,1.19,B4
5,3.03,B5
6,72.3,B6
7,3.17,B7
8,2.65,B8
